Measurements from patent US20190352387A1 (Chugai, published 2019).
Values belong to the binder of their own block, whether it stands above or below them.

Experiments:
Mouse Fc gamma RIIB = target: T1, Mouse Fc gamma RIIB (mouse, UniProt P08101 30-210, limits assumed); assay: SPR (Biacore T200), pH 7.4, 25 degrees C; mouse Fc gamma RIIB captured by anti-Histidine antibody; antibody injected at 100 nM alone or as 1:1 immune complex with human sclerostin
T1 sequence (looked up): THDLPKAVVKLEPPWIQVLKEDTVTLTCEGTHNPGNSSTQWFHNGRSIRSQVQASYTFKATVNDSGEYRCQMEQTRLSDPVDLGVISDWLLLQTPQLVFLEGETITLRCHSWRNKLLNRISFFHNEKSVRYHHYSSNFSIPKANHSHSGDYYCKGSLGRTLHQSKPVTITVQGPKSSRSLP
Description: The binding of anti-sclerostin antibodies/sclerostin immune complex towards mouse Fc gamma RIIB at pH 7.4 were determined at 25 degrees C. using Biacore T200 instrument (GE Healthcare). All antibodies and mouse Fc gamma RIIB were prepared in ACES pH 7.4 containing 20 mM ACES, 250 mM NaCl, 1.2 mM CaCl₂, 0.05% Tween 20, 1 mg/ml BSA, 1 mg/ml carboxymethyl dextran (CMD), 0.005% NaN₃. Anti-Histidine antibody (GE Healthcare) was immobilized onto all flow cells of a CM4 sensor chip using amine coupling kit (GE Healthcare). Mouse Fc gamma RIIB was captured on flow cell 2 by anti-Histidine antibody with flow cell 1 as reference flow cell. Mouse Fc gamma RIIB capture levels were aimed at 400 resonance unit (RU). All antibodies were injected at 100 nM over all flow cells. Immune complexes were prepared by mixing 1:1 molar ratio of antibody and human sclerostin and incubated at room temperature for one hour. Sensor surface was regenerated each cycle with 10 mM Glycine-HCl, pH1.5.

[1] = target: T2, Recombinant mouse sclerostin (mouse, UniProt Q99P68 24-211); assay: cell-based or functional assay
T2 sequence: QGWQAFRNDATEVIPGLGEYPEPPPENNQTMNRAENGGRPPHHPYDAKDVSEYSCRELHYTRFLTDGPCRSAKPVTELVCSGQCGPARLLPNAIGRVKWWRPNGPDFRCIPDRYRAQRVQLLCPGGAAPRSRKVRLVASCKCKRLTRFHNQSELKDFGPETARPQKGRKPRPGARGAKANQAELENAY

[2] = target: T3, Recombinant cynomolgus monkey sclerostin (cynomolgus monkey, UniProt Q9BG78 24-213 (Chlorocebus aethiops entry)); assay: SPR (Biacore), dissociation at pH 7.4
T3 construct: Whole entry as named; expressed and purified as the human counterpart; also called cyno-SOST; cyno SOST
T3 chain: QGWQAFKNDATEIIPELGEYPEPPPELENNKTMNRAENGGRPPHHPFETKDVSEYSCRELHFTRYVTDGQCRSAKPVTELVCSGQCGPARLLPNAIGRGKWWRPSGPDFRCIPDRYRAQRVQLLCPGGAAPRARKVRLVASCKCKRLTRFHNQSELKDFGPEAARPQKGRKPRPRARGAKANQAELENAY
Description: (§1) The affinity of anti-sclerostin variants binding to human, cynomolgus monkey (cyno), rat, or mouse sclerostin at pH 7.4 and pH 5.8 were determined at 37 degrees C. using Biacore T200 instrument (GE Healthcare). Anti-human Fc (GE Healthcare) was immobilized onto all flow cells of a CM4 sensor chip using amine coupling kit (GE Healthcare). All antibodies and analytes were prepared in ACES pH7.4 or pH 5.8 buffer containing 20 mM ACES, 150 mM NaCl, 1.2 mM CaCl₂, 0.05% Tween 20, 0.005% NaN₃. Each antibody was captured onto the sensor surface by anti-human Fc. […] Sensor surface was regenerated each cycle with 3M MgCl₂.

[3] = target: T4, Recombinant human sclerostin (human, UniProt Q9BQB4 24-213); assay: SPR; captured antibody, recombinant human SOST as analyte; response normalised by the capture level of the antibody [panel abL081]
T4 construct: Whole entry as named; Secreted recombinant protein purified from FreeStyle293-F conditioned medium; also called human-SOST; Human SOST
T4 sequence: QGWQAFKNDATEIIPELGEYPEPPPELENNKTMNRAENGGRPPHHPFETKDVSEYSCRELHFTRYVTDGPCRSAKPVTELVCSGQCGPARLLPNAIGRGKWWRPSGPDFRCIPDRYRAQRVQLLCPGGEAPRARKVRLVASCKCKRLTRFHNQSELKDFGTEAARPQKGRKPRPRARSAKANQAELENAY

[4] = target: T4, Recombinant human sclerostin; assay: SPR (Biacore), dissociation at pH 7.4
Description: as §1

[5] = target: T4, Recombinant human sclerostin; assay: SPR; captured antibody (SG1/SK1 constant regions), recombinant human SOST as analyte; response normalised by the capture level of the antibody [panel B-A-B]
[6] = target: T4, Recombinant human sclerostin; assay: SPR; captured antibody (SG1/SK1 constant regions), recombinant human SOST as analyte; response normalised by the capture level of the antibody [panel mabBL]
[7] = target: T4, Recombinant human sclerostin; assay: SPR; captured antibody (SG1/SK1 constant regions), recombinant human SOST as analyte; response normalised by the capture level of the antibody [panel A-B-B]
[8] = target: T4, Recombinant human sclerostin; assay: SPR; captured antibody (SG1/SK1 constant regions), recombinant human SOST as analyte; response normalised by the capture level of the antibody [panel mabAL]
[9] = target: T4, Recombinant human sclerostin; assay: SPR; captured antibody (SG1/SK1 constant regions), recombinant human SOST as analyte; response normalised by the capture level of the antibody [panel B-B-A]
[10] = target: T4, Recombinant human sclerostin; assay: SPR; captured antibody, recombinant human SOST as analyte; response normalised by the capture level of the antibody [panel abL083]
[11] = target: T4, Recombinant human sclerostin; assay: SPR; captured antibody, recombinant human SOST as analyte; response normalised by the capture level of the antibody [panel abL063]

binding result (Mouse Fc gamma RIIB): binds
IC50 (read off the curve); Wnt1-induced TCF/LEF luciferase reporter in HEK293T cells, % Inhibition of mouse SOST [1]: ~7 µg/mL
B1: mabB//mabA-BS01 (bispecific antibody, human IgG1, kappa)
heavy 1: QVQLVQSGAEVKKPGASVKVSCKVSGFPIKDTFQHWVRQAPGKGLEWMGWSDPEIGDTEYASKFQGRVTMTEDTSTDTAYMELSSLRSEDTAVYYCATGDTTYKFDFWGQGTTVTVSSASTKGPSVFPLAPSSRSTSESTAALGCLVKDYFPEPVTVSWNSGALTSGVHTFPAVLQSSGLYSLSSVVTVPSSSLGTKTYTCNVDHKPSNTKVDKRVEPKSCDKTHTCPPCPAPELLGGPSVFLFPPKPKDTLMISRTPEVTCVVVDVSQEDPEVQFNWYVDGVEVHNAKTKPREEQFNSTYRVVSVLTVLHQDWLNGKEYKCKVSNKGLPSSIEKTISKAKGQPREPQVYTLPPSREEMTKNQVSLTCLVKGFYPSDIAVEWESNGQPENNYKTTPPYLDSDGSFFLYSKLTVDKSRWQQGNVFSCSVMHEALHNHYTQESLSLSP
light 1: DIQMTQSPSSLSASVGDRVTITCKASQDVHTAVAWYQQKPGKAPKLLIYWASTRWTGVPSRFSGSGSGTDFTLTISSLQPEDFATYYCQQYSDYPWTFGGGTKVEIKRTVAAPSVFIFPPSDEQLKSGTASVVCLLNNFYPREAKVQWKVDNALQSGNSQESVTEQDSKDSTYSLSSTLTLSKADYEKHKVYACEVTHQGLSSPVTKSFNRGEC
heavy 2: EVQLVQSGAEVKKPGASVKVSCKASGYTFTDYNMHWVRQAPGQGLEWMGEINPNSGGAGYNQKFKGRVTMTTDTSTSTAYMELRSLRSDDTAVYYCARLGYDDIYDDWYFDVWGQGTTVTVSSASTKGPSVFPLAPSSRSTSESTAALGCLVKDYFPEPVTVSWNSGALTSGVHTFPAVLQSSGLYSLSSVVTVPSSSLGTKTYTCNVDHKPSNTKVDKRVEPKSCDKTHTCPPCPAPELLGGPSVFLFPPKPKDTLMISRTPEVTCVVVDVSQEDPEVQFNWYVDGVEVHNAKTKPREEQFNSTYRVVSVLTVLHQDWLNGKEYKCKVSNKGLPSSIEKTISKAKGQPREPQVYTLPPSRKEMTKNQVSLTCLVKGFYPSDIAVEWESNGQPENNYKTTPPYLDSDGSFFLYSKLTVDKSRWQQGNVFSCSVMHEALHNHYTQKSLSLSP
light 2: not shown

koff [2]: 0.0019 s⁻¹
B2: amH852/abL152 (antibody, V domains shown)
VH: EVQLVQSGAEVKKPGASVKVSCKASGYTFTDYNMHWVRQAPGKGLEWMGEIMPHSGRYGLKQKFKGRVTMTTDTSTSTAYMELRSLRSDDTAVYYCARLEYSEIYDDWYFDVWGQGTTVTVSS
VL: DIQMTQSPSSLSASVGDRVTITCRASEGIHDALAWYQQKPGKAPKLLIYWASTLESGVPSRFSGSGSGTDFTLTISSLQPEDFATYYCQQGDTLPYTFGGGTKVEIK
notes: Homodimeric antibody

binding result [3]: binds
B3: mabB heavy chain combined with light chain variant abL081 (antibody, human IgG1, kappa, V domains shown)
VH: QVQLVQSGAEVKKPGASVKVSCKVSGFPIKDTFQHWVRQAPGKGLEWMGWSDPEIGDTEYASKFQGRVTMTEDTSTDTAYMELSSLRSEDTAVYYCATGDTTYKFDFWGQGTTVTVSS
VL: DIQMTQSPSSLSASVGDRVTITCRASQDIHTYLAWYQQKPGKAPKLLIYWASTRWSGVPSRFSGSGSGTDFTLTISSLQPEDFATYYCQQGDTLPYTFGGGTKVEIKR
notes: also called abL081 with the mabB heavy chain

koff [4]: 0.0093 s⁻¹
B4: bsH638/abL152 (antibody, V domains shown)
VH: QVQLVQSGAEVKKPGASVKVSCKVSGYTLTHTFMHWVRQAPGKGLEWMGWSDPEIGDHEYASKFQGRVTMTEDTSTDTAYMELSSLRSEDTAVYYCATGDTTYKFDYWGQGTLVTVSS
VL: DIQMTQSPSSLSASVGDRVTITCRASEGIHDALAWYQQKPGKAPKLLIYWASTLESGVPSRFSGSGSGTDFTLTISSLQPEDFATYYCQQGDTLPYTFGGGTKVEIK
notes: Homodimeric antibody

binding result [5]: binds
B5: mabB heavy chain combined with light chain variant B-A-B (antibody, human IgG1, kappa, V domains shown)
VH: QVQLVQSGAEVKKPGASVKVSCKVSGFPIKDTFQHWVRQAPGKGLEWMGWSDPEIGDTEYASKFQGRVTMTEDTSTDTAYMELSSLRSEDTAVYYCATGDTTYKFDFWGQGTTVTVSS
VL: DIQMTQSPSSLSASVGDRVTITCKASQDVHTAVAWYQQKPGKAPKLLIYYTSRLLSGVPSRFSGSGSGTDFTLTISSLQPEDFATYYCQQYSDYPWTFGGGTKVEIKR
notes: also called B-A-B with the mabB heavy chain

binding result [6]: no binding
B6: mabA heavy chain combined with the mabB light chain (mabBL) (antibody, human IgG1, kappa, V domains shown)
VH: EVQLVQSGAEVKKPGASVKVSCKASGYTFTDYNMHWVRQAPGQGLEWMGEINPNSGGAGYNQKFKGRVTMTTDTSTSTAYMELRSLRSDDTAVYYCARLGYDDIYDDWYFDVWGQGTTVTVSS
VL: DIQMTQSPSSLSASVGDRVTITCKASQDVHTAVAWYQQKPGKAPKLLIYWASTRWTGVPSRFSGSGSGTDFTLTISSLQPEDFATYYCQQYSDYPWTFGGGTKVEIKR
notes: also called mabBL with the mabA heavy chain; Light chain B with the mabA heavy chain

binding result [7]: binds
B7: mabB heavy chain combined with light chain variant A-B-B (antibody, human IgG1, kappa, V domains shown)
VH: QVQLVQSGAEVKKPGASVKVSCKVSGFPIKDTFQHWVRQAPGKGLEWMGWSDPEIGDTEYASKFQGRVTMTEDTSTDTAYMELSSLRSEDTAVYYCATGDTTYKFDFWGQGTTVTVSS
VL: DIQMTQSPSSLSASVGDRVTITCRASQDISNYLNWYQQKPGKAPKLLIYWASTRWTGVPSRFSGSGSGTDFTLTISSLQPEDFATYYCQQYSDYPWTFGGGTKVEIKR
notes: also called A-B-B with the mabB heavy chain

binding result [8]: no binding
B8: mabB heavy chain combined with the mabA light chain (mabAL) (antibody, human IgG1, kappa, V domains shown)
VH: QVQLVQSGAEVKKPGASVKVSCKVSGFPIKDTFQHWVRQAPGKGLEWMGWSDPEIGDTEYASKFQGRVTMTEDTSTDTAYMELSSLRSEDTAVYYCATGDTTYKFDFWGQGTTVTVSS
VL: DIQMTQSPSSLSASVGDRVTITCRASQDISNYLNWYQQKPGKAPKLLIYYTSRLLSGVPSRFSGSGSGTDFTLTISSLQPEDFATYYCQQGDTLPYTFGGGTKVEIKR
notes: also called mabAL with the mabB heavy chain; Light chain A with the mabB heavy chain

binding result [9]: binds
B9: mabB heavy chain combined with light chain variant B-B-A (antibody, human IgG1, kappa, V domains shown)
VH: QVQLVQSGAEVKKPGASVKVSCKVSGFPIKDTFQHWVRQAPGKGLEWMGWSDPEIGDTEYASKFQGRVTMTEDTSTDTAYMELSSLRSEDTAVYYCATGDTTYKFDFWGQGTTVTVSS
VL: DIQMTQSPSSLSASVGDRVTITCKASQDVHTAVAWYQQKPGKAPKLLIYWASTRWTGVPSRFSGSGSGTDFTLTISSLQPEDFATYYCQQGDTLPYTFGGGTKVEIKR
notes: also called B-B-A with the mabB heavy chain

binding result [10]: binds
B10: mabB heavy chain combined with light chain variant abL083 (antibody, human IgG1, kappa, V domains shown)
VH: QVQLVQSGAEVKKPGASVKVSCKVSGFPIKDTFQHWVRQAPGKGLEWMGWSDPEIGDTEYASKFQGRVTMTEDTSTDTAYMELSSLRSEDTAVYYCATGDTTYKFDFWGQGTTVTVSS
VL: DIQMTQSPSSLSASVGDRVTITCRASQDIHTYLAWYQQKPGKAPKLLIYWASTRLSGVPSRFSGSGSGTDFTLTISSLQPEDFATYYCQQGDTLPYTFGGGTKVEIKR
notes: also called abL083 with the mabB heavy chain

binding result [11]: binds
B11: mabB heavy chain combined with light chain variant abL063 (antibody, human IgG1, kappa, V domains shown)
VH: QVQLVQSGAEVKKPGASVKVSCKVSGFPIKDTFQHWVRQAPGKGLEWMGWSDPEIGDTEYASKFQGRVTMTEDTSTDTAYMELSSLRSEDTAVYYCATGDTTYKFDFWGQGTTVTVSS
VL: DIQMTQSPSSLSASVGDRVTITCRASQDISTALAWYQQKPGKAPKLLIYWASTLWSGVPSRFSGSGSGTDFTLTISSLQPEDFATYYCQQGDTLPYTFGGGTKVEIKR
notes: also called abL063 with the mabB heavy chain
